The text below walks through data of the supplement of paper PMC7877785.

This data set can be described thus: self-splicing fitness, log relative to wild type (ln ratio); higher = more splicing; Tetrahymena group I intron in knt gene, E. coli kanamycin selection, DiMSum; sequences stand for … in CUCUCU…GGAGGGAAAAGUUAUCAGGCAUGCACCUGGUAGCUAGUCUUUAAACCAAUAGAUUGCAUCGGUUUAAAAGGCAAGACCGUCAAAUUGCGGGAAAGGGGUCAACAGCCGUUCAGUACCAAGUCUCAGGGGAAACUUUGAGAUGGCCUUGCAAAGGGUAUGGUAAUAAGCUGACGGACAUGGUCCUAACCACGCAGCCAAGUCCUAAGUCAACAGAUCUUCUGUUGAUAUGGAUGCAGUUCACAGACUAAAUGUCGGUCGGGGAAGAUGUAUUCUUCUCAUAAGAUAUAGUCGGACCUCUCCUUAAUGGGAGCUAGCGGAUGAAGUGAUGCAACACUGGAGCCGCUGGGAACUAAUUUGUAUGCGAAAGUAUAUUGAUUAGUUUUGGAGUACUCGUGGUCG
The gist of the method:
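A randomised library covering all eight P1ex-region intron nucleotides was built with the intron in the knt kanamycin-resistance gene on pET-22b(+) and held in E. coli BL21(DE3). Cells were grown overnight at 37°C or 30°C on LB agar, with or without 25 μg/mL kanamycin, plus 100 μg/mL carbenicillin, 50 μM IPTG and 0.2% rhamnose, and pooled colonies were amplicon-sequenced on an Illumina HiSeq 2500. DiMSum fitness is the error-weighted combination of wild-type-normalised replicate fold changes, kanamycin versus none.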

± gives the uncertainty stated by the source.

With UAGCAGCAAUAUUACGCAGC, the “self-splicing fitness (ln)” value was -2.6 ± 0.22 (30 °C) and -1.75 ± 0.19 (37 °C).

For UAGCAGCAAUAUUACGCCGU, the “self-splicing fitness (ln)” value is -2.13 ± 0.13 (30 °C) and -1.24 ± 0.15 (37 °C). For UAGCAGCAAUAUUACGCCUU, the “self-splicing fitness (ln)” value is -0.751 ± 0.078 (30 °C) and -0.21 ± 0.13 (37 °C). UAGCAGCAAUAUUACGCUAC: the “self-splicing fitness (ln)” value by setting is: (30 °C) -2.76 ± 0.32; (37 °C) -2.13 ± 0.44. For UAGCAGCAAUAUUACGCUAG, the “self-splicing fitness (ln)” value is, setting by setting: (30 °C) -2.94 ± 0.12; (37 °C) -1.96 ± 0.17.

As to UAGCAGCAAUAUUACGCUUU, the “self-splicing fitness (ln)” value (30 °C) was -1.18 ± 0.12 and the “self-splicing fitness (ln)” value (37 °C) was -0.753 ± 0.16. With UAGCAGCAAUAUUACGGAGG, the “self-splicing fitness (ln)” value was -3.29 ± 0.15 (30 °C) and -2.6 ± 0.22 (37 °C). With UAGCAGCAAUAUUACGGAUC, the “self-splicing fitness (ln)” value (30 °C) was -3.34 ± 0.21 and the “self-splicing fitness (ln)” value (37 °C) is -1.4 ± 0.2.

UAGCAGCAAUAUUACGGCAA: the “self-splicing fitness (ln)” value by setting is: (30 °C) -0.772 ± 0.16; (37 °C) 0.622 ± 0.19.

On to UAGCAGCAAUAUUACGGGGG, for which the “self-splicing fitness (ln)” value by setting is: (30 °C) -3.44 ± 0.29; (37 °C) -2.98 ± 0.29.

Turning to UAGCAGCAAUAUUACGGGUG, the “self-splicing fitness (ln)” value runs as follows: (30 °C) -0.481 ± 0.058; (37 °C) -0.431 ± 0.075. Consider UAGCAGCAAUAUUACGGGUU, for which the “self-splicing fitness (ln)” value by setting is: (30 °C) -3.82 ± 0.21; (37 °C) -1.86 ± 0.16.

As for UAGCAGCAAUAUUACGGUAG, the “self-splicing fitness (ln)” value was -1.07 ± 0.051 (30 °C) and -0.873 ± 0.067 (37 °C).

As to UAGCAGCAAUAUUACGGUGC, the “self-splicing fitness (ln)” value is, setting by setting: (30 °C) -2.2 ± 0.22; (37 °C) -3.51 ± 0.42. Taken in the same sequence, the figures for UAGCAGCAAUAUUACGGUUC were -3.12 ± 0.1 and -1.89 ± 0.091.

Regarding UAGCAGCAAUAUUACGUAGG, the “self-splicing fitness (ln)” value (30 °C) was -1.62 ± 0.082 and the “self-splicing fitness (ln)” value (37 °C) was -1.35 ± 0.1. Regarding UAGCAGCAAUAUUACGUGGC, the “self-splicing fitness (ln)” value was -4.18 ± 0.26 (30 °C) and -2.12 ± 0.21 (37 °C).

Turning to UAGCAGCAAUAUUACGUGUC, the “self-splicing fitness (ln)” value is, setting by setting: (30 °C) -3.39 ± 0.15; (37 °C) -2.2 ± 0.12. As for UAGCAGCAAUAUUACGUUCC, the “self-splicing fitness (ln)” value runs as follows: (30 °C) -3.78 ± 0.4; (37 °C) 0.00366 ± 0.21. As to UAGGAGCAAUAUUACGAAAC, the “self-splicing fitness (ln)” value was -3.33 ± 0.42 (30 °C) and -2.28 ± 0.5 (37 °C). For the sequence UAGGAGCAAUAUUACGAAAG, the “self-splicing fitness (ln)” value (37 °C) is -1.17 ± 0.23. As for UAGGAGCAAUAUUACGAAAU, the “self-splicing fitness (ln)” value (30 °C) was -2.12 ± 0.28 and the “self-splicing fitness (ln)” value (37 °C) is -2.31 ± 0.42. For the sequence UAGGAGCAAUAUUACGAAUU, the “self-splicing fitness (ln)” value (30 °C) is -2.72 ± 0.3 and the “self-splicing fitness (ln)” value (37 °C) is -2.22 ± 0.48.

As to UAGGAGCAAUAUUACGAGGU, the “self-splicing fitness (ln)” value (37 °C) was -2.42 ± 0.32. Regarding UAGGAGCAAUAUUACGAUGA, the “self-splicing fitness (ln)” value reads like this: (30 °C) -2.75 ± 0.26; (37 °C) -1.53 ± 0.21. Turning to UAGGAGCAAUAUUACGCAGC, the “self-splicing fitness (ln)” value (37 °C) is -2.79 ± 0.36. As to UAGGAGCAAUAUUACGCAUA, the “self-splicing fitness (ln)” value (30 °C) was -2.01 ± 0.19 and the “self-splicing fitness (ln)” value (37 °C) is -1.78 ± 0.17.

Take UAGGAGCAAUAUUACGCGAG: the “self-splicing fitness (ln)” value runs as follows: (30 °C) -2.32 ± 0.16; (37 °C) -0.56 ± 0.13. With UAGGAGCAAUAUUACGCUCC, the “self-splicing fitness (ln)” value (37 °C) was -2.28 ± 0.25. Regarding UAGGAGCAAUAUUACGCUUC, the “self-splicing fitness (ln)” value (30 °C) is -2.64 ± 0.35.

As to UAGGAGCAAUAUUACGGAUG, the “self-splicing fitness (ln)” value runs as follows: (30 °C) -3.62 ± 0.12; (37 °C) -1.69 ± 0.11. Consider UAGGAGCAAUAUUACGGAUU, for which the “self-splicing fitness (ln)” value (30 °C) is -3.92 ± 0.25 and the “self-splicing fitness (ln)” value (37 °C) is -2.98 ± 0.38.

Take UAGGAGCAAUAUUACGGCAU: the “self-splicing fitness (ln)” value reads like this: (30 °C) -4.07 ± 0.39; (37 °C) -1.5 ± 0.25.

Regarding UAGGAGCAAUAUUACGGCUG, the “self-splicing fitness (ln)” value is -0.891 ± 0.16 (30 °C) and 0.65 ± 0.2 (37 °C). With UAGGAGCAAUAUUACGUUCU, the “self-splicing fitness (ln)” value by setting is: (30 °C) -3.31 ± 0.36; (37 °C) -2.54 ± 0.27. As to UAGUAGCAAUAUUACGAAAU, the “self-splicing fitness (ln)” value (30 °C) is -2.89 ± 0.33. For UAGUAGCAAUAUUACGAGAG, the “self-splicing fitness (ln)” value is, setting by setting: (30 °C) -3.43 ± 0.24; (37 °C) -2.67 ± 0.18. Consider UAGUAGCAAUAUUACGAUUG, for which the “self-splicing fitness (ln)” value is, setting by setting: (30 °C) -0.0683 ± 0.084; (37 °C) -0.0425 ± 0.12.

On to UAGUAGCAAUAUUACGCAGU, for which the “self-splicing fitness (ln)” value is, setting by setting: (30 °C) -2.65 ± 0.21; (37 °C) -1.02 ± 0.14. With UAGUAGCAAUAUUACGCCAC, the “self-splicing fitness (ln)” value (37 °C) is -1.56 ± 0.4.
